From patent US20240228562A1 (Pieris, published 2024)

T1: recombinant human CTGF protein (R&D Systems, SEQ ID NO: 79) (human, UniProt P29279 27-349)
T1 construct: Bought; also called human CTGF/CNN2; huCTGF
T1 sequence: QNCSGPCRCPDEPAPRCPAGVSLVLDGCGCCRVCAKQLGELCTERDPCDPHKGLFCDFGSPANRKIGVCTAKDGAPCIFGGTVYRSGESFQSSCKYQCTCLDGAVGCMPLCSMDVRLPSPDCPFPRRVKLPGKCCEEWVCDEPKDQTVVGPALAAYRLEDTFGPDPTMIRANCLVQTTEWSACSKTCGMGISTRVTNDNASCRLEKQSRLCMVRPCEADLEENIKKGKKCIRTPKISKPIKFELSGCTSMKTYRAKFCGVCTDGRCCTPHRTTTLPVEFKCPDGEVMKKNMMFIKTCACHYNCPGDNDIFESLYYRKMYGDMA

T2: huCYR61 (human, UniProt O00622 25-381, limits assumed)
T2 construct: also called human CYR61 (CCN1)
T2 sequence (looked up): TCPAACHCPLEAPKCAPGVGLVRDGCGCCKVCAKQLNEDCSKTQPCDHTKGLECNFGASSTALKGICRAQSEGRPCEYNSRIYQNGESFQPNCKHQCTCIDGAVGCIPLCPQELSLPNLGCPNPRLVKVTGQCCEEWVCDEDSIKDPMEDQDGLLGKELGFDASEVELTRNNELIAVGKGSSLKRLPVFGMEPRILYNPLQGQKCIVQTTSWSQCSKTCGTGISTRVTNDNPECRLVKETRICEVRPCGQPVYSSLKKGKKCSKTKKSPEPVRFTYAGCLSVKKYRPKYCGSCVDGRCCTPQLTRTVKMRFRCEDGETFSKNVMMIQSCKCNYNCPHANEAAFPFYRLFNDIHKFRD

T3: huNOV (human, UniProt P48745 32-357, limits assumed)
T3 construct: also called human NOV (CCN3)
T3 sequence (looked up): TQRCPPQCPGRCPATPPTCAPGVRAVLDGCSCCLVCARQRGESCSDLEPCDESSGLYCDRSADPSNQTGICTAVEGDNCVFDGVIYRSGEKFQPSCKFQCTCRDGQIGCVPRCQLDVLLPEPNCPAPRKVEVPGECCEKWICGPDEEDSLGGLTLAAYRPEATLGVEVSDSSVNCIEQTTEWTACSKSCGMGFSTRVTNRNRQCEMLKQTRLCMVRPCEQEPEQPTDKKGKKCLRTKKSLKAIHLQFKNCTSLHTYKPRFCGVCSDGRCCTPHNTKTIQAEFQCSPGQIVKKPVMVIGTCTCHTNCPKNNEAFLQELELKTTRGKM

T4: huWISP-1 (human, UniProt O95388 23-367, limits assumed)
T4 construct: also called human WISP-1 (CCN4)
T4 sequence (looked up): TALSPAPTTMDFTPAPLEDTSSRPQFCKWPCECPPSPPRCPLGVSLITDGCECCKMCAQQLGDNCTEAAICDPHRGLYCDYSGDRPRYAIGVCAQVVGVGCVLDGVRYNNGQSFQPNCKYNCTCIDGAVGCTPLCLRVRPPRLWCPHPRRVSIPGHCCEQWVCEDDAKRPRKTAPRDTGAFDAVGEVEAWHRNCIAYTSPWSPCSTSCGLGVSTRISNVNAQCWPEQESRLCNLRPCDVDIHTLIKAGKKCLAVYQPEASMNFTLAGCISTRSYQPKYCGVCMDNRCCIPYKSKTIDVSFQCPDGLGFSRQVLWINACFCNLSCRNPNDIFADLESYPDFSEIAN

T5: huWISP-2 (human, UniProt O76076 24-250, limits assumed)
T5 construct: also called human WISP-2 (CCN5)
T5 sequence (looked up): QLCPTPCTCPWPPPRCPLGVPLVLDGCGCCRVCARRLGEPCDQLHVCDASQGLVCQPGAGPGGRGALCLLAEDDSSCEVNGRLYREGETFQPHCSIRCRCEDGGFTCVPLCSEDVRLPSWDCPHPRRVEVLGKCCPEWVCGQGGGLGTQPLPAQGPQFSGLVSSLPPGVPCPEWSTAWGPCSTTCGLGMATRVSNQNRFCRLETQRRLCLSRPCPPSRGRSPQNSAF

T6: huWISP-3 (human, UniProt O95389 24-354, limits assumed)
T6 construct: also called human WISP-3 (CCN6)
T6 sequence (looked up): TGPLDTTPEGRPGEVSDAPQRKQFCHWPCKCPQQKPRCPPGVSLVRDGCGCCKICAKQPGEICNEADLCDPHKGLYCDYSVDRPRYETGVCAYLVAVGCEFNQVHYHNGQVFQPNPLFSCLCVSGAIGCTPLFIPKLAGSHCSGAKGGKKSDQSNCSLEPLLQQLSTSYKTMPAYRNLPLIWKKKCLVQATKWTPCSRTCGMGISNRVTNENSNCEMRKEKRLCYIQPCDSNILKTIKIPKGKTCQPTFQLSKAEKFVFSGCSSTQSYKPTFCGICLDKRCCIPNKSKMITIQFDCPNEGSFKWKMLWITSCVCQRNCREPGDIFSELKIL


How the values were obtained:
[1] = target: T1, recombinant human CTGF protein (R&D …); experiment: ELISA, coated human CTGF
Description: (§1) Binding of fusion proteins was tested by an ELISA assay. In detail, a 384-well plate suitable for fluorescence measurements (Greiner FLUOTRAC™ 600, black flat bottom, high-binding) was coated with 20 μl of human CTGF (R&D Systems) at a concentration of 1 μg/ml in PBS over night at 4° C. After washing with PBS with 0.05% Tween 20, wells were blocked with 100 μl blocking buffer containing 0.1% Tween 20 and 2% BSA (PBS-T/BSA) for 1 h at room temperature. 20 μl of serially diluted muteins were incubated in PBS-T/BSA for 1 h at room temperature (RT).
(§2) The residual supernatants were discarded and 20 μl HRP-labeled anti-NGAL or anti-His-Tag antibody was added at a predetermined optimal concentration in PBS-T/BSA and incubated for 1 h at RT. After washing, 20 μl fluorogenic HRP substrate (QuantaBlu, Thermo) was added to each well, and the reaction was allowed to proceed for 2 to 60 minutes. The fluorescence intensity of every well on the plate was read using a fluorescence microplate reader (Tecan). Curve fitting was performed using GraphPad Prism 7 or 8 software.

huCYR61 = target: T2, huCYR61; experiment: ELISA, coated CCN protein
Description: as §1, with “muteins to closely related” for “fusion”, “proteins of CTGF” for “proteins”, “or the other members of the CCN protein family” for “(R&D Systems)”, “muteins starting at 1000 nM” for “muteins”
as §2, with “anti-Strep-Tag” for “anti-His-Tag”, “When the signal for human CTGF approached saturation, the cross reactivity to the other proteins” for “Curve fitting”, “assessed.” for “performed using GraphPad Prism 7 or 8 software.”

huNOV = target: T3, huNOV; experiment: ELISA, coated CCN protein
Description: as §1, with “muteins to closely related” for “fusion”, “proteins of CTGF” for “proteins”, “or the other members of the CCN protein family” for “(R&D Systems)”, “muteins starting at 1000 nM” for “muteins”
as §2, with “anti-Strep-Tag” for “anti-His-Tag”, “When the signal for human CTGF approached saturation, the cross reactivity to the other proteins” for “Curve fitting”, “assessed.” for “performed using GraphPad Prism 7 or 8 software.”

huWISP-1 = target: T4, huWISP-1; experiment: ELISA, coated CCN protein
Description: as §1, with “muteins to closely related” for “fusion”, “proteins of CTGF” for “proteins”, “or the other members of the CCN protein family” for “(R&D Systems)”, “muteins starting at 1000 nM” for “muteins”
as §2, with “anti-Strep-Tag” for “anti-His-Tag”, “When the signal for human CTGF approached saturation, the cross reactivity to the other proteins” for “Curve fitting”, “assessed.” for “performed using GraphPad Prism 7 or 8 software.”

huWISP-2 = target: T5, huWISP-2; experiment: ELISA, coated CCN protein
Description: as §1, with “muteins to closely related” for “fusion”, “proteins of CTGF” for “proteins”, “or the other members of the CCN protein family” for “(R&D Systems)”, “muteins starting at 1000 nM” for “muteins”
as §2, with “anti-Strep-Tag” for “anti-His-Tag”, “When the signal for human CTGF approached saturation, the cross reactivity to the other proteins” for “Curve fitting”, “assessed.” for “performed using GraphPad Prism 7 or 8 software.”

huWISP-3 = target: T6, huWISP-3; experiment: ELISA, coated CCN protein
Description: as §1, with “muteins to closely related” for “fusion”, “proteins of CTGF” for “proteins”, “or the other members of the CCN protein family” for “(R&D Systems)”, “muteins starting at 1000 nM” for “muteins”
as §2, with “anti-Strep-Tag” for “anti-His-Tag”, “When the signal for human CTGF approached saturation, the cross reactivity to the other proteins” for “Curve fitting”, “assessed.” for “performed using GraphPad Prism 7 or 8 software.”

[2] = target: T1, recombinant human CTGF protein (R&D …); experiment: HTRF, 1 nM biotinylated human CTGF
Description: Binding of some fusion proteins was tested by a Homogeneous Time Resolved Fluorescence (HTRF assay). In detail, 1 nM of biotinylated human CTGF (R&D Systems) was incubated for 1 h with a titration of some lipocalins starting at 5 nM in 384 Flat Bottom White Polystyrol microtiter plate (Greiner). Samples were diluted in PBS containing 0.1% Tween 20 and 2% BSA. As donor, Streptavidin-Terbium at a concentration of 0,006 μg/mL was used, the acceptor was 0.2 μg/mL anti-His-d2 (both CisBio). After another 1 h of incubation, the fluorescence intensity of the donor and acceptor on the plate was read using a fluorescence microplate reader M1000 (Tecan) with the standard settings recommended by CisBio. The calculated ratio of signals was used for the curve fitting performed in GraphPad Prism 7 software.

[3] = target: T7, recombinant human CTGF-Fc protein (Creative Biomart) (human); experiment: SPR (Biacore); B = binding without determination of kinetics constants
T7 construct: Bought; also called human CTGF with a human IgG1 Fc Tag
Description: The binding of exemplary lipocalin muteins to human (Creative Biomart), cynomolgus, rat (R&D Systems) and mouse CTGF (Abbexa) was determined by SPR using a Biacore instrument (Cytiva, formerly GE Healthcare). Some targets were fused to a human IgG1 Fc tag, and captured via the anti-human IgG antibody kit, others were directly immobilized.
For some measurements, human CTGF with a human IgG1 Fc Tag or rat or murine CTGF without a tag were directly immobilized to a CM5 Chip. The carboxyl groups on the chip were activated using 1-ethyl-3-(3-dimethylaminopropyl)-carbodiimide (EDC) and N-hydroxysuccinimide (NHS). […] Residual non-reacted NHS-esters were blocked by passing a solution of 1 M ethanolamine across the surface. The reference channel was activated/deactivated. For the capture setting, targets with an IgG Fc Tag at 0.25-2.5 μg/mL in HBS-EP+ buffer were captured by the anti-human IgG-Fc antibody at the chip surface for 180 s at a flow rate of 10 μL/min.
The binding assay was carried out with a contact time of 180 s, a dissociation time of 900-3600 s and a flow rate of 30 μL/min. All measurements were performed at 25° C. […] For the directly immobilized targets, the same regeneration conditions were used. Prior to the protein measurements, three startup cycles were performed for conditioning purposes.

EC50 [1] [nM] | EC50 [2] [nM] | binding result [3] | Binder | binding result (huCYR61) | binding result (huNOV) | binding result (huWISP-1) | binding result (huWISP-2) | binding result (huWISP-3)
0.26 | 0.59 | – | fusion protein of SEQ ID NO: 74 (designed binder, not shown: C-terminal His-tag) QDSTSDLIPAPPLSKVPLQQNFQDNQFQGKWYVVGLAGNAILREDKQPAKMFATIYELKEDKSYDVTSVRFEAKSCKYTIKTFVPGSQPGEFTAGYIKSAPGQTSTLVRVVSTNYNQHAMVFFKHVTQNREIFVITLYGRTKELTSELKENFIRFSKSLGLPENHIVFPVPIDQCIDGGGGGSGGGGSGGGGSQDSTSDLIPAPPLSKVPLQQNFQDNQFQGKWYVVGWAGNVKLREDKQPQKMSATIYELKEDKSYDVTEVVFEQKKCHYIIKTFVPGSQPGEFTAGDIKSPPGYTSSLVRVVSTNYNQHAMVFFKKVSQNREFFWITLYGRTKELTSELKENFIRFSKSLGLPENHIVFPVPIDQCIDG | no binding (tested: dilutions starting at 1000 nM) | no binding (tested: dilutions starting at 1000 nM) | no binding (tested: dilutions starting at 1000 nM) | no binding (tested: dilutions starting at 1000 nM) | no binding (tested: dilutions starting at 1000 nM)
0.24 | 0.62 | – | fusion protein of SEQ ID NO: 76 (designed binder, not shown: C-terminal His-tag) QDSTSDLIPAPPLSKVPLQQNFQDNQFQGKWYVVGLAGNAILREDKQPAKMFATIYELKEDKSYDVTSVRFEAKSCKYTIKTFVPGSQPGEFTAGYIKSAPGQTSTLVRVVSTNYNQHAMVFFKHVTQNREIFVITLYGRTKELTSELKENFIRFSKSLGLPENHIVFPVPIDQCIDGGGGGSGGGGSGGGGSQDSTSDLIPAPPLSKVPLQQNFQDNQFQGKWYVVGWAGNVKLREDKQPLKMSATIYELKEDKSYDVTEVVFEQKKCHYIIKTFVPGSQPGEFTAGDIKSPPGYTSSLVRVVSTNYNQHAMVFFKKVSQNREFFWITLYGRTKELTSELKENFIRFSKSLGLPENHIVFPVPIDQCIDG | no binding (tested: dilutions starting at 1000 nM) | no binding (tested: dilutions starting at 1000 nM) | no binding (tested: dilutions starting at 1000 nM) | no binding (tested: dilutions starting at 1000 nM) | no binding (tested: dilutions starting at 1000 nM)
– | – | binds | lipocalin mutein of SEQ ID NO: 17 (designed binder, also called hNGAL mutein; not shown: C-terminal His-tag) QDSTSDLIPAPPLSKVPLQQNFQDNQFQGKWYVVGLAGNAILRTDKQPAKMFATIYELKEDKSYDVTSVRFEAKSCVYTSKTFVPGSQPGEFTAGNIKSAPGQTSTLVRVVSTNYNQHAMVFFKHVSQNREFFVITLYGRTKELTSELKENFIRFSKSLGLPENHIVFPVPIDQCIDG | – | – | – | – | –
– | – | binds | lipocalin mutein of SEQ ID NO: 20 (designed binder, also called hNGAL mutein; not shown: C-terminal His-tag) QDSTSDLIPAPPLSKVPLQQNFQDNQFQGKWYVVGLAGNAILREDKQPAKMFATIYELKEDKSYDVTSVRFEAKSCSYTIKTFVPGSQPGEFTAGNIKSAPGQTSTLVRVVSTNYNQHAMVFAKAVQLNREHFFITLYGRTKELTSELKENFIRFSKSLGLPENHIVFPVPIDQCIDG | – | – | – | – | –
